Laboratory results from US20230406909A1 (ROCHE DIAGNOSTICS OPERATIONS, published 2023).
Where two headings read alike, the source gives them in different places.

Experiments:
[1] = target: T1, SlyD-SlyD-tagged nucleocapsid full-length protein (EcSlyD-EcSlyD-CoV-2-N(1-419)) (SARS-CoV-2); assay: SPR (Biacore), captured antibody, NCP analyte, Langmuir 1:1 fit
T1 construct: also called SlyD-SlyD-N protein; N protein

[2] = target: T1, SlyD-SlyD-tagged nucleocapsid …
[3] = target: T1, SlyD-SlyD-tagged nucleocapsid …; remark: listed apart in the source

B1: Antibody 1.1.32 (antibody, V domains shown)
VH: EVQLQQSGPELVKPGASVKMSCKASGYTFTTYVMHWVKQKPGQGLEWIGYSDPYNGDSKDNENFKGKATLTSDKSSSTVYMELSSLTSEDSAVYYCARGFGNYLFYFDYWGQGTTLTVSS
VL: DIQMTQTTSSLSASLGDRVTISCSASQDIRDYLNWYQQKPDGTVKLLIYYTSNLHSGVPSRFSGSGSGTDYSLTISNLEPEDIATYFCQQYSKLPYTFGGGTKLEIK
notes: also called M-1.1.32; clone 1.1.32
With B1 the Kd [1] was 0.059 nM, the “MR (molar ratio)” value [1] was 0.9 and the kon [1] was 340000 M⁻¹ s⁻¹. It also gave a t1/2 diss [1] of 9.65 h, a Kd [2] of 0.06 nM and a koff [2] of 2e-05 s⁻¹. The Kd [3] was 0.059 nM, the “MR (molar ratio)” value [3] was 0.9 and the kon [3] was 340000 M⁻¹ s⁻¹. For the same binder, the t1/2 diss [3] was 9.65 h.

B2: Antibody 1G9 (antibody, V domains shown)
VH: SQSVEESGGRLVTPGTPLTLTCTVSGFSLSTYAVNWVRQAPGKGLEWIGVIDGSGSTYYANWAKGRFTISKASTTVDLKITSPTTEDTATYFCARGAGTDNFGNLNLWGPGTLVTVSS
VL: DVVMTQTPASVEVAVGGTVTIKCQASESISSWLAWYQQKPGQPPKLLIYRASTLASGVPSRFKGSGSGTEYTLTISGVECADAATYYCQQDYSTSNIDNTFGGGTEVVVK
notes: also called clone 1G9
B2 was tested, and the “MR (molar ratio)” value [1] was 1.2, the koff [1] was 0.00024 s⁻¹ and the kon [1] was 200000 M⁻¹ s⁻¹. The t1/2 diss [1] was 0.8 h, the Kd [2] was 1.2 nM and the “MR (molar ratio)” value [3] was 1.2. The koff [3] was 0.00024 s⁻¹, the kon [3] was 200000 M⁻¹ s⁻¹ and the t1/2 diss [3] was 0.8 h.

B3: Antibody 5B6 (antibody, V domains shown)
VH: SQSVEESGGRLVTPGTPLTLTCTASGFSLSSYYMSWVRQAPGKGLEWIGVMTAGGSTFYASWAKGRFTISKTSTTVDLKITSPTTEDTATYFCARSIDTNYGSSIWGPGTLVTVSL
VL: DVVMTQTPASMSEPVGGTVTIKCQASEDIYTYLSWYQQQSGQPPKVLIYAASNLASGVSSRFKGSRSGTEYTLTISDLECADAATYYCQGDYYGSNYGLGTFGGGTEVVVK
notes: also called clone 5B6
B3 was tested, and the “MR (molar ratio)” value [1] was 1.7, the koff [1] was 0.00012 s⁻¹ and the kon [1] was 180000 M⁻¹ s⁻¹. For the same binder, the t1/2 diss [1] was 1.55 h, the Kd [2] was 0.7 nM and the “MR (molar ratio)” value [3] was 1.7. For the same binder, the koff [3] was 0.00012 s⁻¹, the kon [3] was 180000 M⁻¹ s⁻¹ and the t1/2 diss [3] was 1.55 h.
